One series deals with T1, Drosophila EGF receptor (UniProt P04412).
T1 sequence: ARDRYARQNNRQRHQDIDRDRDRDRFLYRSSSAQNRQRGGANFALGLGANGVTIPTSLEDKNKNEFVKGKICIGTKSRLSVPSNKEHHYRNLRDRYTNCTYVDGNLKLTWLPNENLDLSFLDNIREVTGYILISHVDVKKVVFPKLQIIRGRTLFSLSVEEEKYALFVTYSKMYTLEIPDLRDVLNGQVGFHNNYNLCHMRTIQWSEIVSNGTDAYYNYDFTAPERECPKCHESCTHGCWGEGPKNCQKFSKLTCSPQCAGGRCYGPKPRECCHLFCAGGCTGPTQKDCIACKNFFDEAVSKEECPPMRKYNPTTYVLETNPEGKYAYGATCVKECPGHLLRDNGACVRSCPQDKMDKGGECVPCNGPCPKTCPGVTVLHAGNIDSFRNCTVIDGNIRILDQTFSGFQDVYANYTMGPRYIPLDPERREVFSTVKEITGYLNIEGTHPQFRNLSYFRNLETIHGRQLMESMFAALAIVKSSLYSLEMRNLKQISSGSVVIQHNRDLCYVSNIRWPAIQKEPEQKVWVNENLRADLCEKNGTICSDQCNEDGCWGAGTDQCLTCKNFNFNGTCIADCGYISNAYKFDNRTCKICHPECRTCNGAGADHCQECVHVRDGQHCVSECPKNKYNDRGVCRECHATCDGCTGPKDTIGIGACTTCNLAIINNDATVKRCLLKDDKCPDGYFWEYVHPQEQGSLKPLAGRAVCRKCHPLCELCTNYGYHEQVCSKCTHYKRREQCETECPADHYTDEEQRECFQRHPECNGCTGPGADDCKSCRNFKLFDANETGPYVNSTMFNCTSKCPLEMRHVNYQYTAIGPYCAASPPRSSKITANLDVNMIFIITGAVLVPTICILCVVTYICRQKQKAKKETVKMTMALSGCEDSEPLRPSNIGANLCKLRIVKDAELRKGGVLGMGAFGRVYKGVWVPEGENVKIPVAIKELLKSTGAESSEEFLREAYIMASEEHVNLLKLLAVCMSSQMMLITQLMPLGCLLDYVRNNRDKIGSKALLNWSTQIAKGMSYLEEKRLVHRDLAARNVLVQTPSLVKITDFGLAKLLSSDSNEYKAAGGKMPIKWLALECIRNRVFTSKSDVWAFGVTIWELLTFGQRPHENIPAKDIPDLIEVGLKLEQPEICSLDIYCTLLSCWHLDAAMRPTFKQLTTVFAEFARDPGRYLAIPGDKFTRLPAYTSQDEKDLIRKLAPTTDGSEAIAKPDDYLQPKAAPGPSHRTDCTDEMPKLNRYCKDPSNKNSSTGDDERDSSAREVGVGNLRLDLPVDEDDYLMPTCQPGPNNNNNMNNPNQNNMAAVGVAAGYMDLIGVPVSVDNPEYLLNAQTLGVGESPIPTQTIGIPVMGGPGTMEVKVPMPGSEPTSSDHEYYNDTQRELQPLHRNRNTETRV

A further series concerns T2, Drosophila Gurken.
T2 sequence: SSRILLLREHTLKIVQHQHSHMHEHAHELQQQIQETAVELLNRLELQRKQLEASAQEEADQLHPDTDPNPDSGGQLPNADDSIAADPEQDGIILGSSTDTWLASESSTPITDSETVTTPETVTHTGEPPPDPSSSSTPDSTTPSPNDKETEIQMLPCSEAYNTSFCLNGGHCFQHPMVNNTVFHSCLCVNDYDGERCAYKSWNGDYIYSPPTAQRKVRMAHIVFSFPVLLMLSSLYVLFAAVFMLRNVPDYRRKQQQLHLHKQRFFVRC

The subject of another series is T3, Drosophila Keren.
T3 sequence: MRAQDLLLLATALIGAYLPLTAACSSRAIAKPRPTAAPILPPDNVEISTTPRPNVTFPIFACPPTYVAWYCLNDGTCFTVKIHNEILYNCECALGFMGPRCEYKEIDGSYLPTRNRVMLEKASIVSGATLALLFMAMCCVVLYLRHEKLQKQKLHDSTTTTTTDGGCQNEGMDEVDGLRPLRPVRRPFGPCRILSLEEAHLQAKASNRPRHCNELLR

The test system of series [1] is T4, GFP-Spitz (Drosophila Spitz with EGFP inserted between residues 33 and 34).
T4 sequence: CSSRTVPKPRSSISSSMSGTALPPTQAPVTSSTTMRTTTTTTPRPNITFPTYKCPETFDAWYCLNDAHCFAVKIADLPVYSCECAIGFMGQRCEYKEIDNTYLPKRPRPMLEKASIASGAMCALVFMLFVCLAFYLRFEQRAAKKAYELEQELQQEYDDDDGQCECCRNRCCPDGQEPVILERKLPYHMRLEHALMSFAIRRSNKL

The test system of series [2] is human TGFα (EGFP inserted between residues 32 and 33).
Series [3] relates to uncleavable Spitz-TGFα chimera (Spitz with residues 140-160 replaced by the equivalent residues from TGFα, with the TGFα C-terminus).
The target of another series is T5, Drosophila Delta, P10041.
T5 chain: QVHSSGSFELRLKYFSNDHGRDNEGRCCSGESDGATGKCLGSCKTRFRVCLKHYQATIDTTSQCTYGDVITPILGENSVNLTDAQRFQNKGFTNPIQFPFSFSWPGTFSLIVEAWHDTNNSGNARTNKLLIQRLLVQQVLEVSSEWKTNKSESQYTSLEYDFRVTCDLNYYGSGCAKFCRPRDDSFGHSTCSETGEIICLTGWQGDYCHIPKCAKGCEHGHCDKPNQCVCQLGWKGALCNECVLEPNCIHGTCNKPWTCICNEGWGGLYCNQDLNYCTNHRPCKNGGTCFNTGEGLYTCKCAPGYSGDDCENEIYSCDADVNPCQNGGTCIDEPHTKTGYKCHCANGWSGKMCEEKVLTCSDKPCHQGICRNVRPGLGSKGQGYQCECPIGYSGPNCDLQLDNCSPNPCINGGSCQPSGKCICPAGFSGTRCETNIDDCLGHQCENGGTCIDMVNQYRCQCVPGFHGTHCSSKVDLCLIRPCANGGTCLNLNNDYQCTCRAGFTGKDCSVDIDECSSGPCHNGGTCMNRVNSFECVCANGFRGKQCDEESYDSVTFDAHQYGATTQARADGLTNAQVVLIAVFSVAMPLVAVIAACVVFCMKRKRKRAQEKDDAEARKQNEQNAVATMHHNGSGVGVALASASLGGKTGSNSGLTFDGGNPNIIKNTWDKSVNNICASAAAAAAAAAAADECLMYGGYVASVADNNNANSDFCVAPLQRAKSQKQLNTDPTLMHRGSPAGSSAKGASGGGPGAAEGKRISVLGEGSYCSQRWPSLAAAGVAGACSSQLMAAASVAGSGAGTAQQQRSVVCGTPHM

Series [4] has as its target T6, Drosophila EGF receptor, P04412.
T6 chain: T1 sequence

Series [5] has as its target human TGFα (EGFP inserted between residues 32 and 33). This is another data set of the same source.
In series [6] the target is uncleavable Spitz-TGFα chimera (Spitz with residues 140-160 replaced by the equivalent residues from TGFα, with the TGFα C-terminus). The source holds these as a separate data set.
Series [7] addresses uncleavable Spitz-TGFα chimera with Spitz residue G143 restored in the TGFα TMD.

The values below come from patent US7718391B2, “Assays for identifying modulators of rhomboid polypeptides” (Medical Research Council, priority 2001, dated 2010).

As for Drosophila Rhomboid-4, the “cleavage of polypeptide substrates” value is “Rhomboid-4 cleaves all the polypeptide substrates tested so far, including ... the completely unrelated Drosophila EGF receptor” with Drosophila EGF receptor; “Rhomboid-4 cleaves all the polypeptide substrates tested so far, including ... Gurken” with Drosophila Gurken; “Rhomboid-4 cleaves all the polypeptide substrates tested so far, including ... Keren” in the series with Drosophila Keren; “Rhomboid-4 cleaves all the polypeptide substrates tested so far, including Spitz” in series [1]; “Rhomboid-4 cleaves all the polypeptide substrates tested so far, including ... human TGFα” in series [2]; “Rhomboid-4 cleaves all the polypeptide substrates tested so far, including ... the 'non-cleavable' Spitz/TGFα chimera” in series [3].

B1: Drosophila Rhomboid-1 (triple HA tag at the N-terminus) (protein)
chain: MENPTQNVNETKVDLGQEKEKEASQEEEHATAAKETIIDIPAACSSSSNSSSYDTDCSTASSTCCTRQGEHIYMQREAIPATPLPESEDIGLLKYVHRQHWPWFILVISIIEIAIFAYDRYTMPAQNFGLPVPIPSDSVLVYRPDRRLQVWRFFSYMFLHANWFHLGFNIVIQLFFGIPLEVMHGTARIGVIYMAGVFAGSLGTSVVDSEVFLVGASGGVYALLAAHLANITLNYAHMKSASTQLGSVVIFVSCDLGYALYTQYFDGSAFAKGPQVSYIAHLTGALAGLTIGFLVLKNFGHREYEQLIWWLALGVYCAFTVFAIVFNLINTVTAQLMEEQGEVITQHLLHDLGVS
For the molecule B1, the “cleavage of type-I membrane proteins” value with Drosophila Delta, P10041 is given as “Rhomboid-1 could not cleave other type-I membrane proteins including ... Drosophila Delta”; in [4], “Rhomboid-1 could not cleave other type-I membrane proteins including Drosophila EGF receptor”; in series [5] it was “Rhomboid-1 could not cleave other type-I membrane proteins including ... human TGFα”; with human TGN38, “Rhomboid-1 could not cleave other type-I membrane proteins including ... human TGN38”. Besides, the “cleavage of Spitz/TGFα TMD chimeras, without Star, with batimastat” value in [6] is on record as “replacing the remaining 5 residues (residues 140-160) abolished cleavage”. Besides, in series [7], the “cleavage of the uncleavable Spitz-TGFα chimera with single Spitz residues put back” value is on record as “substitution of only Spitz residue G143 restored cleavage of this chimeric substrate”.
